Measured values as given in patent publication US20260035464A1 (STAIDSON BIOPHARMA, published 2026).

Columns and labels:
[1] = molecular target: T1, rhesus monkey BTLA extracellular domain protein with His tag (Sino Biological, cat #90250-C08H) (rhesus monkey, UniProt G7MKA9 31-157); experiment: ELISA, rhesus monkey BTLA coated at 0.333 ug/mL, anti-human IgG Fc-AP detection
T1 construct: extracellular domain; Bought protein; also called His-tag-rhesus monkey BTLA; not shown: His tag
T1 sequence: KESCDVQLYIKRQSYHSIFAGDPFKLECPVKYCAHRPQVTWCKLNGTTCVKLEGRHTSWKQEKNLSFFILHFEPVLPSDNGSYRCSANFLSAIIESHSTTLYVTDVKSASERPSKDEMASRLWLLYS
Description: (§1) BTLA binding of purified recombinant chimeric antibodies by ELISA: The huBTLA and rhesus monkey BTLA antigen binding ELISA was performed on the purified recombinant chimeric antibodies. Briefly, 384-well, clear flat bottom high binding plates (Corning, cat #3700) were coated overnight at 4° C. with 0.333 μg/mL of huBTLA or rhesus monkey BTLA in PBS. The following purified process was performed as described in ELISA binding assay in Example 2, except that the secondary antibody was goat anti human IgG Fc-AP (Southern Biotech, cat #2014-04).

[2] = molecular target: T2, human BTLA (Uniprot Q7Z6A9) expressed on cells (human, UniProt Q7Z6A9 31-289); experiment: flow cytometry on huBTLA-overexpressing Expi293 cells, MFI
T2 construct: whole, on cells; also called huBTLA-overexpressing Expi293 cells
Description: (§2) Expi293 cells stably overexpressing huBTLA were incubated with the chimeric anti-BTLA antibodies 83F2 or 86B7 in PBS containing 0.5% BSA, 1 mM EDTA, and 0.1% sodium azide (FACS buffer) for 30 minutes at 4° C. The cells were washed, and then incubated with 10 nM phycoerythrin (PE) conjugated anti-Human Fc Ab (BioLegend, cat #409304) for 20 minutes at 4° C. Cells were washed and then analyzed by flow cytometry with Attune (ThermoFisher Scientific). Data were analyzed with FlowJo software. Antibody binding is represented as median fluorescence intensity (MFI).
FACS based binding assays of humanized anti-BTLA antibodies were performed as described above in Example 3.

[3] = molecular target: T2, human BTLA (Uniprot Q7Z6A9) expressed …; experiment: flow cytometry on Expi293 cells stably overexpressing huBTLA, PE anti-human Fc
From the text: To examine the binding of the chimeric anti-BTLA antibodies to huBTLA overexpressing cells, Expi293 cells stably overexpressing huBTLA were used to perform FACS analysis. Briefly, the coding sequence of huBTLA (Uniprot, Q7Z6A9) was cloned into a lentiviral vector and the recombinant virus was packaged according to the instruction of the virus packaging kit (Lenti-X™ Packaging Single Shots, Cat #631275, Takada). The Expi293 cells were transduced with the recombinant virus.
as §2

[4] = molecular target: T1, rhesus monkey BTLA extracellular domain …; experiment: ELISA, plate coated with rhesus monkey BTLA, detection with goat anti-human IgG Fc-AP, OD405
Description: as §1

EC50 [1]: 0.0559 nM
EC50 (read off the curve) [2]: ~0.8 nM
EC50 [3]: 0.554 nM
EC50 (read off the curve) [4]: ~0.4 nM
B1: chimeric anti-BTLA antibody 86B7 (antibody, V domains shown)
VH: QVTLKESGPGILQPSQTLSLTCSFSGFSLSTFGMGVSWIRQPSGKGLEWLAHIYWDDDKRFNPSLKSRLSISKDTSNNQVFLKITTVDTADTATYYCARGNWDGETYFDYWGQGTTLTVSS
VL: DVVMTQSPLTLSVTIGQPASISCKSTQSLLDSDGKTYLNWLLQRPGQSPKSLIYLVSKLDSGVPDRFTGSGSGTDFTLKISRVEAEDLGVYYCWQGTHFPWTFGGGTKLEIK
